Test results reported in paper doi:10.1101/2025.06.29.662139 (bioRxiv, 2025).

Target: human CD33 protein (R&D Systems) (Homo sapiens, UniProt P20138)
Experiment: SPR

Sequence of human CD33 protein (R&D Systems) (P20138 18-259): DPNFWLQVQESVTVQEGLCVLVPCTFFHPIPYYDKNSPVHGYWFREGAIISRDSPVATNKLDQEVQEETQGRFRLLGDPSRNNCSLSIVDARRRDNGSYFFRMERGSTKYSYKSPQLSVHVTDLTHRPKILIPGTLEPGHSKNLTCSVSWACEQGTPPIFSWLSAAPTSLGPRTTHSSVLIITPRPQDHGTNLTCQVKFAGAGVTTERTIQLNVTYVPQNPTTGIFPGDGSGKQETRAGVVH

Binder	fold reduction in binding affinity (KD) against the lead candidate	binding result	fold loss of binding affinity against the parent antibody
anti-CD33 antibody variant S11 (antibody, V domains shown) VH: QVQLVQSGAEVKKPGSSVKVSCKASGGIFSNHRISWVRQAPGQGLEWMGGIIPIFGTANYAQKFQGRVTITADESTSTAFMELSSLRSEDTAVYYCARAWADVFDIWGQGTMVTVSS VL: EIVLTQSPLSLPVTPGEPASISCRSSQSLLHSNGYNYLDWYLQKPGQSPQLLIYLGVNSVSGVPDRFSGSGSGTDFTLKISRVEAEDVGVYYCMQALQTPWTFGQGTKVEIK	1.4 fold	–	–
anti-CD33 antibody W96F (antibody, V domains shown) VH: QVQLVQSGAEVKKPGSSVKVSCKASGGIFSNHAISWVRQAPGQGLEWMGGIIPIFGTANYAQKFQGRVTITADESTSTAFMELSSLRSEDTAVYYCAREFADVFDIWGQGTMVTVSS VL: EIVLTQSPLSLPVTPGEPASISCRSSQSLLHSNGYNYLDWYLQKPGQSPQLLIYLGVNSVSGVPDRFSGSGSGTDFTLKISRVEAEDVGVYYCMQALQTPWTFGQGTKVEIK	–	no binding	> 1000 fold
